These results are taken from paper doi:10.1101/2020.01.21.912428.

Assay [1] concerns the target dTBCE-GFP expressed in Drosophila embryos (Drosophila melanogaster) (UniProt A1Z6J5). Put plainly: fluorescence microscopy of beads.
Assay [2] addresses dTBCE^mutCG-GFP expressed in Drosophila embryos (Drosophila melanogaster) (UniProt A1Z6J5). The assay is described as follows: fluorescence microscopy of beads.

With “bovine brain tubulin supplemented with 25 % of tubulin-rhodamin (from UniProt Q6B856 1-445) (complex)”, the mean fluorescence intensity in the tubulin-rhodamine channel turned out to be 25.9 a.u in assay [1] and 4.7 a.u in assay [2].
